Ends that are not written are not given here.

For four molecules, factor of increase in affinity, IC50 and relative activity (ratio of IC50 to P85-97A) results are on record in US6649166.

In assay [1] the target is HLA-DR molecule encoded by the allele HLA-DRB1*1501 (human).
Assay [2] addresses HLA-DR molecule encoded by the allele HLA-DRB1*0301 (human). Nature of the assay: competition ELISA, nonbiotinylated tracer peptide against its biotinylated form.
Assay [3] concerns the target T1, HLA-DR molecule encoded by the allele HLA-DRB1*1301 (human).
T1 chain 1: not shown
T1 chain 2: not shown
The description is as above.

Assay [4] has as its target T1, HLA-DR molecule encoded by the allele …. Nature of the assay: competition ELISA, nonbiotinylated peptide against the biotinylated tracer of that DR molecule. (ELISA stands for enzyme-linked immunosorbent assay.)
The target of assay [5] is T2, HLA-DR molecule encoded by the allele HLA-DRB3*0101 (human).
T2 chain 1: not shown
T2 chain 2: not shown
Described as above.

For assay [6], the target named is HLA-DR molecule encoded by the allele HLA-DRB1*1101 (human). Nature of the assay: competition ELISA, purified HLA-DR, biotinylated tracer; minus sign = loss.
Assay [7] deals with HLA-DR molecule encoded by the allele HLA-DRB1*0401 (human). Described as above.
Assay [8] has as its target HLA-DR molecule encoded by the allele HLA-DRB1*0301 (human). Described as above.
The target in assay [9] is T1, HLA-DR molecule encoded by the allele …. Described as above.
Assay [10] concerns the target HLA-DR molecule encoded by the allele HLA-DRB1*0101 (human). Described as above.
Assay [11] deals with T2, HLA-DR molecule encoded by the allele …. The description is as above.
Assay [12] concerns the target T3, HLA-DR molecule encoded by the allele HLA-DRB1*0701 (human).
T3 chain 1: not shown
T3 chain 2: not shown
Described as above.

B1: API m1 peptide with glycine 84 substituted by an alanine (peptide)
peptide: YFVAKMYFNLIDT
modifications: not checked
For B1, the factor of increase in affinity in assay [1] worked out at 5 fold.

B2: MT 2-16 (nonbiotinylated peptide) (peptide)
peptide: AKTIAYDEEARGLE
modifications: not fully specified
For orientation: IC50 means the concentration that inhibits the measured activity by half. A higher IC50 goes with a need for much substance. Consider B2, for which the IC50 in assay [2] was 100 nM.

B3: B1 21-36 (nonbiotinylated peptide) (peptide)
peptide: TERVRLVTRHIYNREE
modifications: not fully specified
As to B3, the IC50 in assay [3] is 320 nM; in assay [4], 275 nM; in [5] it was 35000 nM.

B4: peptide N89T, analog of the peptide P85-97A (peptide)
peptide: KMYFTLIDTKAYK
modifications: not checked
Regarding B4, the relative activity (ratio of IC50 to P85-97A) in assay [6] amounted to 2 fold; in assay [7], 2 fold; in assay [8], 7 fold; in [9], 1 fold; in assay [10], 1 fold; in assay [11], 2 fold. Besides, in assay [12], the relative activity (ratio of IC50 to P85-97A) was 3 fold.
